According to article PMC7949163:

B1: Mutual gliding-motility protein B (MglB), Q1DB03 1-159 (natural protein)
chain: MGTQLVMYEEEFTKINAVCDRLTKDANAKVVFLVDKNGQLISSAGQTQNIDTTSLASLTAGNVAAMGGLAKLIGENEFPNQFHEGAKDSLYMTIVGSRVVLVVIFDNRTSLGLVRLRIKKASDELTKIFESLVKKTDSPGAGSPFAEISDDDIDNLFSE

What was measured:
[1] = target: Mutual gliding motility protein C (MglC) (Myxococcus xanthus); experiment: SEC; analytical SEC, Superdex 200 Increase 10/300, 0.5 ml/min, A280; proteins alone or MglB:MglC mixed 1:1, 2:1 and 1:2; MglB mutants mixed with MglC 2:1
[2] = target: Mutual gliding-motility protein B (MglB) (Myxococcus xanthus) (UniProt Q1DB03); experiment: as above
[3] = target: Mutual gliding motility protein C (MglC) (Myxococcus xanthus); experiment: SAXS; SAXSpace line collimation, 20 °C; MglB 25, 15, 10 mg/ml; MglC 35, 15, 20 mg/ml; MglBC and MglB^ΔCTC complexes freshly eluted from SEC
[4] = target: Mutual gliding-motility protein B (MglB) (Myxococcus xanthus) (UniProt Q1DB03); experiment: as above
[5] = target: Mutual gliding-motility protein B (MglB) (Myxococcus xanthus) (UniProt Q1DB03); experiment: ITC; 25 °C; 50 μM MglB in the cell titrated with 500 μM MglC; one set of sites model; triplicates
[6] = target: T1, Mutual gliding-motility protein B (MglB) (Myxococcus xanthus), Q1DB03; experiment: SAXS; SAXSpace line collimation, 20 °C; MglB 25, 15, 10 mg/ml; MglC 35, 15, 20 mg/ml; MglBC and MglB^ΔCTC complexes freshly eluted from SEC; conditions: remark: other sources report otherwise
T1 chain: B1 chain

[7] = target: T1, Mutual gliding-motility protein B …; experiment: SEC; analytical SEC, Superdex 200 Increase 10/300, 0.5 ml/min, A280; proteins alone or MglB:MglC mixed 1:1, 2:1 and 1:2; MglB mutants mixed with MglC 2:1; conditions: remark: other sources report otherwise

| Molecule | stoichiometry N [1] | stoichiometry N (MglC per MglB) [2] | stoichiometry N [3] | stoichiometry N (MglC per MglB) [4] | Kd [5] | dH [5] | stoichiometry N [5] | stoichiometry N [6] | stoichiometry N [7] |
| --- | --- | --- | --- | --- | --- | --- | --- | --- | --- |
| Mutual gliding motility protein C (MglC) (natural protein) | 2 | 0.5 | 2 | 0.5 | 417 nM | 6.94 kcal/mol | 0.51 |  |  |
| B1 |  |  |  |  |  |  |  | 2 | 2 |
